In article PMC8796304 (ACS Central Science, 2021):
Ends that are not written are not given here.

T1: GPI-anchored myc peptide tag (Homo sapiens c-Myc epitope tag, UniProt P01106, also: GPI anchor)
T1 chain: EQKLISEEDL


Experiments:
[1] = biological target: T2, Frizzled-7/Fc chimera protein (Homo sapiens, UniProt O75084); experiment: BLI
[2] = biological target: human Frizzled-7 on Fzd7+myc+ CHO cells (Homo sapiens, UniProt O75084); experiment: flow cytometry on cells
[3] = biological target: T2, Frizzled-7/Fc chimera protein; experiment: ELISA
[4] = biological target: Frizzled 2 extracellular domain (Homo sapiens (assumed), UniProt Q14332); experiment: ELISA
[5] = biological target: Frizzled 1 extracellular domain (Homo sapiens (assumed), UniProt Q9UP38); experiment: ELISA
[6] = biological target: T1, GPI-anchored myc peptide tag; experiment: flow cytometry on cells

Chain of Frizzled 2 extracellular domain (Q14332 whole entry, looked up, the tested form may be a part): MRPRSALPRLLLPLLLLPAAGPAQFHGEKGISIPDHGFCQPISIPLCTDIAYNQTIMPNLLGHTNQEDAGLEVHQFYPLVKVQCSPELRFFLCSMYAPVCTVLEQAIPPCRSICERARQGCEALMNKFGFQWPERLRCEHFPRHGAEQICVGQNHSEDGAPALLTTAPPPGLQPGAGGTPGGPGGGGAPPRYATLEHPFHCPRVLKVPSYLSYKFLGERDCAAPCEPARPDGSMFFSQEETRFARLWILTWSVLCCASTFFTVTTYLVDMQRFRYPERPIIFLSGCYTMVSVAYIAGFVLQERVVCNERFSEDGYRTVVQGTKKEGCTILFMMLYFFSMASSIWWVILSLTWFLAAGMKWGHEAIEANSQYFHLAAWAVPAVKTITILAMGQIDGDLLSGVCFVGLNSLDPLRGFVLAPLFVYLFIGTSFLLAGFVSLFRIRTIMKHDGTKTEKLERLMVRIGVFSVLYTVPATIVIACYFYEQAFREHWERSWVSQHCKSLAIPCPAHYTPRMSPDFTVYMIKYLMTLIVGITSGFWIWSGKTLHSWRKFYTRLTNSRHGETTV
Chain of Frizzled 1 extracellular domain (Q9UP38 whole entry, looked up, the tested form may be a part): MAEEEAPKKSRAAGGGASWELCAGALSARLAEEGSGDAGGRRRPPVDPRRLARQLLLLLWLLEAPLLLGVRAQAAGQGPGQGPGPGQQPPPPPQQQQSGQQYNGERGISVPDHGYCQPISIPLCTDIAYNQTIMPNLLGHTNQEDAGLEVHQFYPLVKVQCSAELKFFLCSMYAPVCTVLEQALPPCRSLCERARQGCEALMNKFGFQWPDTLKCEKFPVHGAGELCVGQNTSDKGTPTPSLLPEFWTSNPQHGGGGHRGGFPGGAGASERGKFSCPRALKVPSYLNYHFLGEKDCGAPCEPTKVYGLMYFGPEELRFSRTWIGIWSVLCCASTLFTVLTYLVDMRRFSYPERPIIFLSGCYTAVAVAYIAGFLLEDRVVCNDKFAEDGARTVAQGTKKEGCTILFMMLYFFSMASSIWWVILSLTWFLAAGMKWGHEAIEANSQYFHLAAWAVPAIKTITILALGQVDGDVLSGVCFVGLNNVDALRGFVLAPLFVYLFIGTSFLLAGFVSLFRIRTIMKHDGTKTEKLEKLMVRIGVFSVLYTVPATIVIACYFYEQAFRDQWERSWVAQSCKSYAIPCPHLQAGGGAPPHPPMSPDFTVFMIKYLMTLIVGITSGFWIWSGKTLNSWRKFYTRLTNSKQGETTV

Binder | Kd [1] [nM] | EC50 [2] [nM] | EC50 [3] [nM] | binding result [4] | binding result [5] | binding result [6]
ML7 (antibody, V domains shown) VH: EVQLVESGGGLVQPGGSLRLSCAASGFNIYYYSMHWVRQAPGKGLEWVASISSYYGYTYYADSVKGRFTISADTSKNTAYLQMNSLRAEDTAVYYCARSWGYGGSSSYALDYWGQGTLVTVSS VL: DIQMTQSPSSLSASVGDRVTITCRASQSVSSAVAWYQQKPGKAPKLLIYSASSLYSGVPSRFSGSRSGTDFTLTISSLQPEDFATYYCQQVGGGPITFGQGTKVEIK | 0.448 ± 0.053 | < 10 | < 10 | binds | binds | no binding (tested: 50 nM)
ML8 (antibody, V domains shown) VH: EVQLVESGGGLVQPGGSLRLSCAASGFNIYYYSMHWVRQAPGKGLEWVASISSYYGYTYYADSVKGRFTISADTSKNTAYLQMNSLRAEDTAVYYCARSWGYGGSSSYALDYWGQGTLVTVSS VL: DIQMTQSPSSLSASVGDRVTITCRASQSVSSAVAWYQQKPGKAPKLLIYSASSLYSGVPSRFSGSRSGTDFTLTISSLQPEDFATYYCQQYAYPVYFLITFGQGTKVEIK | 4.98 ± 0.28 | < 10 | < 10 | – | – | no binding (tested: 50 nM)
ML9 (antibody, V domains shown) VH: EVQLVESGGGLVQPGGSLRLSCAASGFNIYYYSMHWVRQAPGKGLEWVASISSYYGYTYYADSVKGRFTISADTSKNTAYLQMNSLRAEDTAVYYCARSWGYGGSSSYALDYWGQGTLVTVSS VL: DIQMTQSPSSLSASVGDRVTITCRASQSVSSAVAWYQQKPGKAPKLLIYSASSLYSGVPSRFSGSRSGTDFTLTISSLQPEDFATYYCQQGWWGYYSLITFGQGTKVEIK | 0.292 ± 0.066 | – | – | – | – | no binding (tested: 50 nM)
